Measured values published in patent US20180273595A1.

T1: recombinant His-tagged full-length ERG, P11308
T1 chain: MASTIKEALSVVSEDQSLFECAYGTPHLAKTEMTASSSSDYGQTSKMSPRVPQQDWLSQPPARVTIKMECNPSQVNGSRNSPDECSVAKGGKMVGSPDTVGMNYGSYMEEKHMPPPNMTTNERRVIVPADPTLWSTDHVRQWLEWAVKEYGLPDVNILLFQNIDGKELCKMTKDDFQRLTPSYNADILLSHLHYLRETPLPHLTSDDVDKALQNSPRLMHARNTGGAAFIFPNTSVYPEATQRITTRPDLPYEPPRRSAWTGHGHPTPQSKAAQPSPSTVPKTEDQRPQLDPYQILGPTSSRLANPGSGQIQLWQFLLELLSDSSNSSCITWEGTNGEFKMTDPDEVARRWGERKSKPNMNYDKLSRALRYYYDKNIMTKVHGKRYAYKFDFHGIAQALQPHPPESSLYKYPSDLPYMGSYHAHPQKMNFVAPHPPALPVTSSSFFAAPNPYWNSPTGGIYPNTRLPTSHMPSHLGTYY


Biological target: T1, recombinant His-tagged full-length ERG, …
Test: OctetRED BLI

Row | Binder | Kd
1 | GRRRQRRKKRGGTFLYPPL (modifications not checked) [RI-EIP1 retroinverso peptidomimetic] | 940 nM
2 | GRRRQRRKKRGGPLSGFSL (modifications not checked) [RI-EIP2 retroinverso peptidomimetic] | 1280 nM
